In the DeepSol protein solubility set:

Assay: soluble on expression in E. coli; label from the status in PepcDB or PDB records

Sequence	soluble on expression in E. coli
MLNQSVRFLARRANSQIRRSNLLKTGSLAAQDRGFFFGKRREPRCDLKNQSIVQADGSRKSAWLGDKPLRHESFIGILTTYAGIRRGPTVGGKEMLGKRVMKNGKLEWEWITYEQAFEISDNVSQAIRKLGIEIGDKSNIGIYSKNRPEWVLSDMAIHNFSNVSVPIYDNIPNEDMHYITNLCEIPLMFVDSEDKTTQLIKDKTYLSKSLKYIVQFDKVSDEMKAMAESNNFQLWSFDEFVELGKKHEHRPHAPPTPETLATISFTSGTTGRPKGAMLTHLNLCSTTVACEEFEHVEGELDSYLSYLPLAHVYERHCTLAHFKIGSNFHNFLNKFVEVFFFFKRISSKVTKIFRRIGFSRGDPALLVEDIQALAPRTFACVPRVLGKIYKSVMSQVQDKPVKKMILNSAIAYKLYHYKMTGKATRDTLVDKYILHKIQMILGPNIKQFLIPAAKTDNSSMRFARGAFGIEILELYGLTETSGPTTIQLVGDMLGSVGPPISCTSIKLVDIAELGYFVDENGGEVLVKGHNVTSGYYKDPKATASAFTEDGFMKTGDIGKFTPEGTLQLIDRRDNVLKLPQGEFVAPDLTESLYISSKFVQQICVHGNKEKPWLVAVVVPDPEYLASHANLEHNIEGKTYEELCKIPALAEDVLHALIKFFIWVFAIHLTPIAFSPQNGLTTPTHKNKRTAIAQFFKKQIVEMFDRIEKEEEGTELTTKIENAH	not soluble
MGSDKIHHHHHHVKLHVIHYNDLHSHFDMWPRYMSFMKEHRTYDSLVFDLGDHADRVAPATEATQGKINTHLLNELSPTAVTIGNNEGITFPHDWLAELYSDATFPVLVSNLSAPFAKAGMIQELPTGKVGIFGLTAPYYELYELLGWSIENPFEAAAREIEALRDQVDVLICLSHLGFYQDEDLAERFPELDLIIGSHTHHVLDDGVVRNGVLIAQAGKHGQYAGEIYLNTDTGEKEAVLHPLESYPEDEATAVLLDKEQYLAERQMKQPIGRTSGLANDWFNPSPFTQLLADTMRDWCQADLACVPAGMLLGSLSPGPVSSYDLHRLCPHPINPCKVTMTGKELKQFIAEVDTNRFEQLKVRGLGFRGKLMGKMHYAGNRQHLDDAKHYTVVLPDMFTFGPLFPEIKEMPKEYFMPELLRDLLFDRLSEKSEFGELPIRKH	not soluble
MHEMRELAQGSLKEMRTLIWQLRPAGLEKGLLPALKQYGESLGLKIREQVTGVRDLPRVVEEALWRIGQEALNNVSKHANVREATIYFKVTEKNVSLEIVDQGNGFVEKNIKEKKSLGMTTMRERVELVGGTIKIVSDKKRTSVKVNVPL	not soluble
SNAMNNIRLLNQNDLDSYIELMKFGHHNYEWDRYYLENVSIDRLKTILSNHTDYWNIFGAFEDDELVATCTLKQMNYVGKCHKAILENNFVKNNDEIVNRELINHIIQYAKEQNIETLMIAIASNNISAKVFFSSIGFENLAFEKNASKIGNEYFDENWLIYSTTESSD	soluble
MSTTFPLHTESFMLLDSGCLTNSDYFLPFALTDVLTTFSGMQHQPIIHFWQLDQAMILGMKDTRVPHLKEGIASLQENDYSVVVRNAGGLGVIADSGILNVSLILPNNSEHKLSIDAAYELMWAWLRQSFPEKEIDAFEITTSYCPGTYDLSIGGQKFAGIAQRRVKDGISVMIYISVNGNQLARGEVVRDFYLAGLQEQFGENGYPPVDPAVMANLETLIETPLTIDAVKTRLIEALPQQFEKSIDPNLTEPIITSEWFQTNLTVQLEKMAQRNALIKGEIL	not soluble
MAISVFDLFSIGIGPSSSHTVGPMRAARMFARRLRNEELLDSVASVRVELYGSLGATGHGHGTPKAVLLGLEGDSPRTVDVESADDRVETIKSSGRISLLGDHEIAFAYDDDMVLHRRKALPYHANGMTLWAYDAEGAEVLTKTYYSVGGGFVVDEDAVGADRIVLDDTVLKYPFRTGDELLRLARETGLSISALMLENERAWRDEDEIREGLLEIWRVMRACVDRGMTREGILPGGLKVRRRAANTARKLRSEGDPQALAMEWITLYAMAVNEENAAGGRVVTAPTNGAAGIIPAVLHYYMNFVPGADEDGVVRFLLAAGAIGMLFKENASISGAEVGCQGEVGSACSMAAGALAEVLGGSPEQVENAAEIGMEHNLGLTCDPVGGLVQIPCIERNGMAAVKAVTAARMAMRGDGSHKVSLDKVIKTMKETGADMSVKYKETARGGLAVNIIEC	not soluble
MAIKFQYNKTSLQQQEKQLKMRERTLPTIKSKESALRLEVKRTKDEVERLERQLEEEIVGYRSMVSLWNEFKPDLISVEGVKLSAKKVAGVVVPVLDDISYTIKPFSLFNAPSWFAEGIDLLKNLAHTGIEAEFLGLKLEFLEYARKKTTQKVNLFEKVQIPGYKDAIRKIKRYLEDEESLSKSSQKIMRANMEKRNKGEEVMA	not soluble
MGSDKIHHHHHHMSKTLKEITDQKNELKKFFENFVLNLEKTEIFSEIQKNLTDEVLFVGCGSSYNLALTISYYFERVLKIRTKAIPAGEVAFQKIPDLEERGLAFLFSRTGNTTEVLLANDVLKKRNHRTIGITIEEESRLAKESDLPLVFPVREEAIVMTKSFSMILLSLMFLADKIAGNSTERFSELVGYSPEFFDISWKVIEKIDLKEHDHFVFLGMSEFFGVSLESALKCIEMSLTFSEAYSTLEYRHGPKALVKKGTLVFMQKVSGMDEQEKRLRKELESLGATVLEVGEGGDIPVSNDWKSAFLRTVPAQILGYQKAISRGISPDKPPHLEKTVVL	soluble
MAQFTEDEKIMRRLEQRFNKGVVKYRLIEDGDKILIGLSGGKDSLALLELLARRSRILKPKFTVIAVHVGMTNIPYQSDLEYLKGYSEDLGVPFVHYETFFDPSTDTRKSPCFLCSWNRRKALFTVAKEQGCNKIALGHHMDDILETLLMNITFQGAFSTMPPKLVMRKFEMTIIRPMCLVHEADLIEMARIRGFRKQIKDCPYESLSNRSNMKEVLYSLEKMNPEARYSLWKCMTNIQEELLPGMNEHDL	not soluble
MAHHHHHHMIFRFYSKLYKHQCAYKNILYNKYHIEKKLEYFYDSIKKNNYSTLYGIKKNDLLNIKKNSGEFLLLSDIFMIKQNNLFLLNNVRRNFYYNTNIIKGIYNDSLFYYDKKYFSGRSGGLKRKKKRKEERIVNTGSAKRLEFFYPKKKRRQRIGLIQNSRKNIVYDNIFKRFLVYHYKQGIQVFRSFSCKKKRNFEAARNKAIILSNQYNKRFNKHNMNDQQRKDTKNIPLNVMDSNLIAKYNNELIKQIKIIPDKNKSGYRGVFYEPSYHAYICIYNEAGVRKFQIFKIQNNDYLEAYHLALMCRRYKLFKNYQFVFQRNRIRSGRIPLK	not soluble
MGSDKIHHHHHHMMVEESLQLQNELLNKLVQGGGLKELVDSAAHFVQREVVIANTSNRVLESTFSEGFSQGEFFAVLPLQPPVPGRVQLQAGEKKAEALVVELSHDAKRLGFLFICDPGADEDNRLKVLIHQARNVFVLELQKKAELLENSRNYQDAFLFDLLYGNIEDNADIIARGKLWGWDLSLPHVVTAFELEDYESYSQDHYLVTTLHDIIQSVAQSLDKTVILMEKNEEVVLALPVEARKRRDFKAYLNMIINQVLAQAEERLAPRVIRVGVGRRYEQPSELFRSYQEAKVAVKLSALLKDKGPIVYFRELGVERILYSHDKQELLEFYREILAELEAQDKQKNELIETLENYLVYHCDLKATADALFLHPNSLRYRLKRIEEILDLDLEDFDTRVSLVIAFKIKHLIHSKERL	not soluble
MSLRIGVAGVGKLGEFHTNLLKQIAAEASDVEFSGVFDLNPERLQEIGKKYGVACFSTLEELAASCDAAVIATTTSSHYAIARQLLEARLHLFIEKPITATLEEADKLIRIEQEKGLTIQVGHIERFNPALLAVEPYIGEPMYIQAERLSGFSRRVTDVSVVLDLMIHDIDLVLSLIKSDIRSIAASGVKVFSNELDMATARIEFENGAIANVTASRLSRSKLRKMRFFTRNPKSYASLDFTSGKSEVFRLVPPDQLSSKNPIKNFATKKILEQFGEIQESLKEMALDYVSPDVPKINALKEELEQFIDAIRKGKPAKVTSEEGRRALMVAGKITDEIRNNTADLDEGHHHHHH	soluble
MTPIEAKFARLSTDHAPDQEVRQGNAGLDGLLRGDTLPGTPVDFSHGDVNTSAFAPTPGSLQEFVQGVERGGEQAYTEYRGAADLRLRVAAHLAEFTGAPVDGANELIITPGTQGALFLAIASSVTAGDKVAIVRPDYFANRKLVEFLGDEIVPVDMRHLERDSGAGLDLDQLEAAFKAGVRTFLFSNPNNPAGVVYSPEEIAQIADLARHYDATVIVDQLYSRLLYTGTRYTHLRALPQAPANVITIMGPSKTESLSGYRLGVAFGAAHLIDRMEKLQAIVSLRAPGYCQAVLRTWFQEPAGWMNERIAQHQAIRDDLIRVLRAVPGLAVRAPEAGSYLFPRLPRLAVGLHDFVRILRTQAGVTVTPGTEFSPHADDSIRLNFSQNHAAAVQAIERTAQLIERYRA	not soluble
